Test results published in article PMC11234463, “Structural Evolution of Bacterial Polyphosphate Degradation Enzyme for Phosphorus Cycling” (Advanced Science, 2024).
Blank lines part the entries; values can stand above or below the compound they belong to.

What was measured:
DrPPX = target: T1, DrPPX (Deinococcus radiodurans, UniProt Q9RYW9); assay: X-ray crystal structure of complex; details: crystals grown in 1.26 M NaH2PO4 and 0.14 M K2HPO4, pH 5.6; four phosphate ions in the polyP-binding area
T1 construct: gene DR_A0185; full length, N-terminal His6 tag (pET-28a), expressed in E. coli BL21 Rosetta pLysS (DE3); asymmetric homodimer; about 515 residues (C-terminal deletion printed as 320-515)
T1 sequence (Q9RYW9 entry or part of it): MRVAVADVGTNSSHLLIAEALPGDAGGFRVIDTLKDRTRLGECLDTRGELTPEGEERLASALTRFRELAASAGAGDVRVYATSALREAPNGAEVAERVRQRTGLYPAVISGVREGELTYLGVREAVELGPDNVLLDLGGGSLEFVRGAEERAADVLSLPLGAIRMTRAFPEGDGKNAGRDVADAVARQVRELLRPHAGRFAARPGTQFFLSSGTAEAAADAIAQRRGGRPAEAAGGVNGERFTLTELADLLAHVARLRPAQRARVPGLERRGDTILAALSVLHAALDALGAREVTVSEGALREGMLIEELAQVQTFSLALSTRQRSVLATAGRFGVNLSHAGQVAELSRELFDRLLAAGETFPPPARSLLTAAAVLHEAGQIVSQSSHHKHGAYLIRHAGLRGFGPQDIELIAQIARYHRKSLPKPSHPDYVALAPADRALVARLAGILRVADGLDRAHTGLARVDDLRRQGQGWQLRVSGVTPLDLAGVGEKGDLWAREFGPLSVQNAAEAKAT

[1] = target: AbPPX, exopolyphosphatase (PPX) from Acinetobacter baumannii (Acinetobacter baumannii 15827); assay: crystal structure; sitting drop vapor diffusion at 20 °C, protein 1-5 mg/mL; molecular replacement with E. coli PPX (PDB 1U6Z); dimers seen in the crystals
[2] = target: DrPPX, exopolyphosphatase (PPX) from Deinococcus radiodurans, wild type (Deinococcus radiodurans R1); assay: SEC; gel filtration chromatography; elution peak of DrPPX (+7AA) compared with that of wild-type DrPPX
[3] = target: DrPPX, exopolyphosphatase (PPX) from Deinococcus radiodurans, wild type (Deinococcus radiodurans R1); assay: crystal structure; sitting drop vapor diffusion at 20 °C, protein 1-5 mg/mL; molecular replacement with E. coli PPX (PDB 1U6Z); dimers seen in the crystals
[4] = target: KpPPX, exopolyphosphatase (PPX) from Klebsiella pneumoniae (Klebsiella pneumoniae 1158); assay: as above

Compound: O=P(O)(O)O [Pi, phosphate]
X-ray crystal structure of complex (DrPPX): four phosphate ions were located in the polyP‐binding area

stoichiometry N [1]: 2
Compound: AbPPX, exopolyphosphatase (PPX) from Acinetobacter baumannii (enzyme)

stoichiometry N [2]: 2
stoichiometry N [3]: 2
Compound: DrPPX, exopolyphosphatase (PPX) from Deinococcus radiodurans, wild type (enzyme)

stoichiometry N [4]: 2
Compound: KpPPX, exopolyphosphatase (PPX) from Klebsiella pneumoniae (enzyme)
